The values that follow come from patent EP4733314A1, “NOVEL BISPECIFIC FUSION PROTEIN AND USE THEREOF” (Slbigen Inc., priority 2023, dated 2024).

The nature of test [1]: Anti-diabetic effect in db/db mice (blood glucose, HbA1c, insulin, HOMA-IR, HOMA-β). It counts as in vivo. The following applies: 15 nmol/kg s.c. every three days for 12 weeks. As to the method: Specifically, 14-week-old male db/db mice (Janvier Labs, France) were subcutaneously injected every three days for 12 weeks with designated doses of Semaglutide, Tirzepatide, or the bispecific fusion protein MG12-8 according to one embodiment of the present invention. Subsequently, non-fasting blood glucose levels were measured at 25-day intervals (on days 25, 50, and 75 of the experiment), and HbA1c levels were measured monthly up to three months. Additionally, at the end of the experiment, fasting blood glucose and serum insulin concentrations were determined, and HOMA-IR and HOMA-β scores were calculated.

A short description of test [2]: Histological analysis of pancreatic tissue of db/db mice. Format: in vivo. The following applies: pancreas after 12 weeks of dosing. The text has this: Subsequently, after completion of the above experiment, the present inventors sacrificed the experimental animals and performed histological analysis of pancreatic tissues. Specifically, after euthanizing the animals under general anesthesia at the end of the animal study, the pancreas was excised, fixed in 4% paraformaldehyde, embedded in paraffin, sectioned transversely into 5 µm slices using a microtome, and then subjected to staining either with insulin alone, double staining with insulin and glucagon, or double staining with insulin and Ki-67. All double staining was carried out using fluorescent-labeled antibodies, followed by imaging with a confocal laser microscope.

The target in a further test is GLP-1 receptor. As to the kind of experiment: cell-based or functional assay.
Test [3] can be described thus: Body weight in MASH model with intestinal leakage (CD-HFD + DSS). Format: in vivo, C57BL/6J mice. The note with it: 55 nmol/kg twice daily s.c., two weeks after first administration. An excerpt:
(§1) Subsequently, the present inventors investigated the weight reduction and regulation of intestinal leakage in a metabolic dysfunction-associated steatohepatitis (MASH) animal model with intestinal leakage, using Liraglutide as a comparative control and MG12-8 according to one embodiment of the present invention. Specifically, twenty-week-old male C57BL/6J mice were obtained, and overweight was induced by feeding a choline-deficient high-fat diet (CD-HFD). In addition, intestinal leakage was induced by cyclically administering dextran sulfate sodium (DSS) at a low concentration of 1% for 7 days followed by 10 days of regular drinking water. After two weeks from the initiation of CD-HFD feeding, Liraglutide and MG12-8 were subcutaneously administered at their respective prescribed dosages and dosing intervals. Two weeks after the first administration, body weight was measured (FIG. 4a). To assess intestinal leakage, a fluorescein isothiocyanate (FITC)-Dextran (4 kDa) solution was administered orally 4 hours before sacrifice, after which the mice were fasted. The amount of FITC-Dextran translocated into the blood was then evaluated by measuring fluorescence intensity in serum.

Test [4] can be described thus: Intestinal leakage (serum FITC-Dextran fluorescence) in MASH model (CD-HFD + DSS). Format: in vivo, C57BL/6J mice. The note with it: 55 nmol/kg twice daily s.c.
From the text: as §1

The next test concerns the target GLP-2 receptor. As to the kind of experiment: cell-based or functional assay.

Regarding `CC[C@H](C)[C@H](NC(=O)[C@H](CC(C)C)NC(=O)[C@H](Cc1c[nH]c2ccccc12)NC(=O)[C@H](CCC(N)=O)NC(=O)[C@@H](NC(=O)[C@H](Cc1ccccc1)NC(=O)[C@H](C)NC(=O)[C@H](CCCCNC(=O)COCCOCCNC(=O)COCCOCCNC(=O)CC[C@H](NC(=O)CCCCCCCCCCCCCCCCCCC(=O)O)C(=O)O)NC(=O)[C@H](CCC(N)=O)NC(=O)[C@H](C)NC(=O)[C@@H](NC(=O)[C@H](CCCCN)NC(=O)[C@H](CC(=O)O)NC(=O)[C@H](CC(C)C)NC(=O)C(C)(C)NC(=O)[C@@H](NC(=O)[C@H](CO)NC(=O)[C@H](Cc1ccc(O)cc1)NC(=O)[C@H](CC(=O)O)NC(=O)[C@H](CO)NC(=O)[C@@H](NC(=O)[C@H](Cc1ccccc1)NC(=O)[C@@H](NC(=O)CNC(=O)[C@H](CCC(=O)O)NC(=O)C(C)(C)NC(=O)[C@@H](N)Cc1ccc(O)cc1)[C@@H](C)O)[C@@H](C)O)[C@@H](C)CC)[C@@H](C)CC)C(C)C)C(=O)N[C@@H](C)C(=O)NCC(=O)NCC(=O)N1CCC[C@H]1C(=O)N[C@@H](CO)C(=O)N[C@@H](CO)C(=O)NCC(=O)N[C@@H](C)C(=O)N1CCC[C@H]1C(=O)N1CCC[C@H]1C(=O)N1CCC[C@H]1C(=O)N[C@@H](CO)C(N)=O` [Tirzepatide], the “insulin resistance index (HOMA-IR)” value in test [1] is reported as above 40. For the same molecule, the “number of Ki-67-positive cells per 10,000 µm^2” value in test [2] is “showed no improvement compared with the control group”.
As for “wild-type GLP-1 (human GLP-1 peptide) (from UniProt P01275 21-180)”, in the test with GLP-1 receptor, the GLP-1 activity (Set1), EC50 (nM); cAMP bioluminescence in GLP-1R-expressing CHO-K1 cells was 0.69 nM; the GLP-1 activity (Set1), Relative activity compared with hGLP-1 peptide (%) stood at 100%; the GLP-1 activity (Set2), EC50 (nM); cAMP bioluminescence in GLP-1R-expressing CHO-K1 cells is 0.89 nM; the GLP-1 activity (Set2), Relative activity compared with hGLP-1 peptide (%) stood at 100%.
In the case of “Liraglutide (HAEGTFTSDVSSYLEGQAAKEFIAWLVRGRG; REGION 1..31: note = Liraglutide) [GLP-1 receptor agonist marketed by Novo Nordisk as Victoza for the treatment of type 2 diabetes and obesity]”, the “body weight compared with vehicle” value in test [3] is “reduced body weights compared with the vehicle-administered group”. Further, in test [4], the “intestinal leakage suppression activity (serum FITC-Dextran)” value is reported as “did not exhibit intestinal leakage suppression activity relative to the control”.
With wild-type GLP-2 (human GLP-2 peptide), the GLP-2 activity, EC50 (nM); cAMP bioluminescence in GLP-2R-expressing CHO-K1 cells with GLP-2 receptor worked out at 1.18 nM.

B1: MG12-7 (Fc fusion)
chain 1: HGEGTFTSDVSSYLEGQAAKEFIAWLVKGGPSSGAPPPSGGGGSGGGGSGGGGSAKNTTAPATTRNTTRGGEEKKKEKEKEEQEERTHTCPPCPSHTQPLGVFLFPPKPKDQLMISRTPEVTCVVVDVSQEDPEVQFNWYVDGVEVHNAKTKPREEQFNSTYRVVSVLTVLHQDWLNGKEYKCKVSNKGLPSSIEKTISKAKGQPREPQVYTLPPCQEEMTKNQVSLWCLVKGFYPSDIAVEWESNGQPENNYKTTPPVLDSDGSFFLYSRLTVDKSRWQEGNVFSCSVLHEALHNHYTQKSLSLSLGK
chain 2: HGDGSFSDEMNTILDGQAARDFINWLIQTKITDGGGGSGGGGSGGGGSEPKSSDKTHTCPPCPSHTQPLGVFLFPPKPKDQLMISRTPEVTCVVVDVSQEDPEVQFNWYVDGVEVHNAKTKPREEQFNSTYRVVSVLTVLHQDWLNGKEYKCKVSNKGLPSSIEKTISKAKGQPREPQVCTLPPSQEEMTKNQVSLSCAVKGFYPSDIAVEWESNGQPENNYKTTPPVLDSDGSFFLVSRLTVDKSRWQEGNVFSCSVLHEALHNHYTQKSLSLSLGK
Turning to B1, in the test with GLP-1 receptor, the GLP-1 activity (Set1), EC50 (nM); cAMP bioluminescence in GLP-1R-expressing CHO-K1 cells came out at 0.35 nM; the GLP-1 activity (Set1), Relative activity compared with hGLP-1 peptide (%) stood at 194%; the GLP-1 activity (Set2), EC50 (nM); cAMP bioluminescence in GLP-1R-expressing CHO-K1 cells amounted to 0.57 nM; the GLP-1 activity (Set2), Relative activity compared with hGLP-1 peptide (%) is 156%. In the test with GLP-2 receptor, this molecule yielded a GLP-2 activity, EC50 (nM); cAMP bioluminescence in GLP-2R-expressing CHO-K1 cells of 50.8 nM and a GLP-2 activity, Relative activity compared with hGLP-2 peptide (%) of 2%.

B2: MG12-8 (Fc fusion)
chain 1: HGEGTFTSDVSSYLEGQAAKEFIAWLVKGGPSSGAPPPSGGGGSGGGGSGGGGSGGGGSGGGGSGGGGSHGEGTFTSDVSSYLEGQAAKEFIAWLVKGGPSSGAPPPSGGGGSGGGGSGGGGSEPKSSDKTHTCPPCPSHTQPLGVFLFPPKPKDQLMISRTPEVTCVVVDVSQEDPEVQFNWYVDGVEVHNAKTKPREEQFNSTYRVVSVLTVLHQDWLNGKEYKCKVSNKGLPSSIEKTISKAKGQPREPQVYTLPPCQEEMTKNQVSLWCLVKGFYPSDIAVEWESNGQPENNYKTTPPVLDSDGSFFLYSRLTVDKSRWQEGNVFSCSVLHEALHNHYTQKSLSLSLGK
chain 2: HGDGSFSDEMNTILDGQAARDFINWLIQTKITDGGGGSGGGGSGGGGSEPKSSDKTHTCPPCPSHTQPLGVFLFPPKPKDQLMISRTPEVTCVVVDVSQEDPEVQFNWYVDGVEVHNAKTKPREEQFNSTYRVVSVLTVLHQDWLNGKEYKCKVSNKGLPSSIEKTISKAKGQPREPQVCTLPPSQEEMTKNQVSLSCAVKGFYPSDIAVEWESNGQPENNYKTTPPVLDSDGSFFLVSRLTVDKSRWQEGNVFSCSVLHEALHNHYTQKSLSLSLGK
For B2, in the test with GLP-1 receptor, the GLP-1 activity (Set1), EC50 (nM); cAMP bioluminescence in GLP-1R-expressing CHO-K1 cells stood at 0.81 nM; the GLP-1 activity (Set1), Relative activity compared with hGLP-1 peptide (%) turned out to be 85%; the GLP-1 activity (Set2), EC50 (nM); cAMP bioluminescence in GLP-1R-expressing CHO-K1 cells was found to be 0.71 nM; the GLP-1 activity (Set2), Relative activity compared with hGLP-1 peptide (%) was 125%. Moreover, in the test with GLP-1 receptor, the relative GLP-1 activity, MG12-8 Sample #1; cAMP bioluminescence in HEK-GLP-1R cells worked out at 100%; the relative GLP-1 activity, MG12-8 Sample #2; cAMP bioluminescence in HEK-GLP-1R cells was found to be 200%; the relative GLP-1 activity, MG12-8 Sample #3; cAMP bioluminescence in HEK-GLP-1R cells was 300%; the relative GLP-1 activity, MG12-8 Sample #4; cAMP bioluminescence in HEK-GLP-1R cells worked out at 400%. In the test with GLP-2 receptor, this molecule registered a GLP-2 activity, EC50 (nM); cAMP bioluminescence in GLP-2R-expressing CHO-K1 cells of 19 nM and a GLP-2 activity, Relative activity compared with hGLP-2 peptide (%) of 6%.

B3: MG12-6 (Fc fusion)
chain 1: HGEGTFTSDVSSYLEGQAAKEFIAWLVKGGPSSGAPPPSGGGGSGGGGSGGGGSEKEKEEQEERTHTCPPCPSHTQPLGVFLFPPKPKDQLMISRTPEVTCVVVDVSQEDPEVQFNWYVDGVEVHNAKTKPREEQFNSTYRVVSVLTVLHQDWLNGKEYKCKVSNKGLPSSIEKTISKAKGQPREPQVYTLPPCQEEMTKNQVSLWCLVKGFYPSDIAVEWESNGQPENNYKTTPPVLDSDGSFFLYSRLTVDKSRWQEGNVFSCSVLHEALHNHYTQKSLSLSLGK
chain 2: HGDGSFSDEMNTILDNLAARDFINWLIQTKITDGGGGGSGGGGSGGGGSAKNTTAPATTRNTTRGGEEKKKEKEKEEQEERTHTCPPCPSHTQPLGVFLFPPKPKDQLMISRTPEVTCVVVDVSQEDPEVQFNWYVDGVEVHNAKTKPREEQFNSTYRVVSVLTVLHQDWLNGKEYKCKVSNKGLPSSIEKTISKAKGQPREPQVCTLPPSQEEMTKNQVSLSCAVKGFYPSDIAVEWESNGQPENNYKTTPPVLDSDGSFFLVSRLTVDKSRWQEGNVFSCSVLHEALHNHYTQKSLSLSLGK
As for B3, in the test with GLP-1 receptor, the GLP-1 activity (Set1), EC50 (nM); cAMP bioluminescence in GLP-1R-expressing CHO-K1 cells stood at 1.57 nM; the GLP-1 activity (Set1), Relative activity compared with hGLP-1 peptide (%) was 44%; the GLP-1 activity (Set2), EC50 (nM); cAMP bioluminescence in GLP-1R-expressing CHO-K1 cells amounted to 1.12 nM; the GLP-1 activity (Set2), Relative activity compared with hGLP-1 peptide (%) was determined as 79%. In the test with GLP-2 receptor, this molecule registered a GLP-2 activity, EC50 (nM); cAMP bioluminescence in GLP-2R-expressing CHO-K1 cells of 2.42 nM and a GLP-2 activity, Relative activity compared with hGLP-2 peptide (%) of 49%.
